In patent publication US20260015399A1 (Boehringer Ingelheim, published 2026):
*1 amine or outer side, *2 acyl side, *3 side chain or, on linkers, in order; H or OH if unused. Side-chain parts run from the residue outwards. The star is where a group is joined. C18 diacid = O=C(O)CCCCCCCCCCCCCCCCC(=O)*; γGlu = O=C(O)[C@H](CCC(=O)[*:2])N[*:1]; Isovaleryl = CC(C)CC(=O)*; Ahx = NCCCCCC(=O)O

T1: human NPY2 receptor (human, UniProt P49146 1-381)
T1 construct: whole, on cells; also called hNPY2-R; hNPY2R
T1 sequence (looked up): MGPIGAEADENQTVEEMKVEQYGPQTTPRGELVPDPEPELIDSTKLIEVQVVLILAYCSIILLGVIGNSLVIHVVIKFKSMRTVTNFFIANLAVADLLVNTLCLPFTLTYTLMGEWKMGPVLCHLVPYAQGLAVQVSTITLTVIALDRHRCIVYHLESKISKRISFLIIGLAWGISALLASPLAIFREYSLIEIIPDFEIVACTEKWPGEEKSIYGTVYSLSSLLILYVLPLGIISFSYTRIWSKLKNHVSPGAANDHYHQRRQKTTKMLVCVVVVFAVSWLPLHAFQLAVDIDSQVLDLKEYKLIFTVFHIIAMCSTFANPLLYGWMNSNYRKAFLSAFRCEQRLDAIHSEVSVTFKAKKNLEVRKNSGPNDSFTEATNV


Molecular target: T1, human NPY2 receptor
Test: RLB: displacement of 125I-PYY(1-36) from hNPY2R membranes

Ki [nM] | Binder
3.36 | Isovaleryl-APEK([Ahx-γGlu-C18 diacid])PEAAAEPEELQRYYVALRHYYNWLTRQRY-NH2 (SMILES CC(C)CC(=O)N[C@@H](C)C(=O)N1CCC[C@H]1C(=O)N[C@@H](CCC(=O)O)C(=O)N[C@@H](CCCCNC(=O)CCCCCNC(=O)CC[C@H](NC(=O)CCCCCCCCCCCCCCCCC(=O)O)C(=O)O)C(=O)N1CCC[C@H]1C(=O)N[C@@H](CCC(=O)O)C(=O)N[C@@H](C)C(=O)N[C@@H](C)C(=O)N[C@@H](C)C(=O)N[C@@H](CCC(=O)O)C(=O)N1CCC[C@H]1C(=O)N[C@@H](CCC(=O)O)C(=O)N[C@@H](CCC(=O)O)C(=O)N[C@@H](CC(C)C)C(=O)N[C@@H](CCC(N)=O)C(=O)N[C@@H](CCCNC(=N)N)C(=O)N[C@@H](Cc1ccc(O)cc1)C(=O)N[C@@H](Cc1ccc(O)cc1)C(=O)N[C@H](C(=O)N[C@@H](C)C(=O)N[C@@H](CC(C)C)C(=O)N[C@@H](CCCNC(=N)N)C(=O)N[C@@H](Cc1c[nH]cn1)C(=O)N[C@@H](Cc1ccc(O)cc1)C(=O)N[C@@H](Cc1ccc(O)cc1)C(=O)N[C@@H](CC(N)=O)C(=O)N[C@@H](Cc1c[nH]c2ccccc12)C(=O)N[C@@H](CC(C)C)C(=O)N[C@H](C(=O)N[C@@H](CCCNC(=N)N)C(=O)N[C@@H](CCC(N)=O)C(=O)N[C@@H](CCCNC(=N)N)C(=O)N[C@@H](Cc1ccc(O)cc1)C(N)=O)[C@@H](C)O)C(C)C) [Compound 127]
9.36 | Isovaleryl-APEK([Ahx-γGlu-C18 diacid])PEEDATPEELQLYYVSLRHYYNWLTRQRY-NH2 (SMILES CC(C)CC(=O)N[C@@H](C)C(=O)N1CCC[C@H]1C(=O)N[C@@H](CCC(=O)O)C(=O)N[C@@H](CCCCNC(=O)CCCCCNC(=O)CC[C@H](NC(=O)CCCCCCCCCCCCCCCCC(=O)O)C(=O)O)C(=O)N1CCC[C@H]1C(=O)N[C@@H](CCC(=O)O)C(=O)N[C@@H](CCC(=O)O)C(=O)N[C@@H](CC(=O)O)C(=O)N[C@@H](C)C(=O)N[C@H](C(=O)N1CCC[C@H]1C(=O)N[C@@H](CCC(=O)O)C(=O)N[C@@H](CCC(=O)O)C(=O)N[C@@H](CC(C)C)C(=O)N[C@@H](CCC(N)=O)C(=O)N[C@@H](CC(C)C)C(=O)N[C@@H](Cc1ccc(O)cc1)C(=O)N[C@@H](Cc1ccc(O)cc1)C(=O)N[C@H](C(=O)N[C@@H](CO)C(=O)N[C@@H](CC(C)C)C(=O)N[C@@H](CCCNC(=N)N)C(=O)N[C@@H](Cc1c[nH]cn1)C(=O)N[C@@H](Cc1ccc(O)cc1)C(=O)N[C@@H](Cc1ccc(O)cc1)C(=O)N[C@@H](CC(N)=O)C(=O)N[C@@H](Cc1c[nH]c2ccccc12)C(=O)N[C@@H](CC(C)C)C(=O)N[C@H](C(=O)N[C@@H](CCCNC(=N)N)C(=O)N[C@@H](CCC(N)=O)C(=O)N[C@@H](CCCNC(=N)N)C(=O)N[C@@H](Cc1ccc(O)cc1)C(N)=O)[C@@H](C)O)C(C)C)[C@@H](C)O) [Compound 130]
2.75 | Isovaleryl-APEK([Ahx-γGlu-C18 diacid])PEADATPEELQRYYVSLRHYYNWLTRQRY-NH2 (SMILES CC(C)CC(=O)N[C@@H](C)C(=O)N1CCC[C@H]1C(=O)N[C@@H](CCC(=O)O)C(=O)N[C@@H](CCCCNC(=O)CCCCCNC(=O)CC[C@H](NC(=O)CCCCCCCCCCCCCCCCC(=O)O)C(=O)O)C(=O)N1CCC[C@H]1C(=O)N[C@@H](CCC(=O)O)C(=O)N[C@@H](C)C(=O)N[C@@H](CC(=O)O)C(=O)N[C@@H](C)C(=O)N[C@H](C(=O)N1CCC[C@H]1C(=O)N[C@@H](CCC(=O)O)C(=O)N[C@@H](CCC(=O)O)C(=O)N[C@@H](CC(C)C)C(=O)N[C@@H](CCC(N)=O)C(=O)N[C@@H](CCCNC(=N)N)C(=O)N[C@@H](Cc1ccc(O)cc1)C(=O)N[C@@H](Cc1ccc(O)cc1)C(=O)N[C@H](C(=O)N[C@@H](CO)C(=O)N[C@@H](CC(C)C)C(=O)N[C@@H](CCCNC(=N)N)C(=O)N[C@@H](Cc1c[nH]cn1)C(=O)N[C@@H](Cc1ccc(O)cc1)C(=O)N[C@@H](Cc1ccc(O)cc1)C(=O)N[C@@H](CC(N)=O)C(=O)N[C@@H](Cc1c[nH]c2ccccc12)C(=O)N[C@@H](CC(C)C)C(=O)N[C@H](C(=O)N[C@@H](CCCNC(=N)N)C(=O)N[C@@H](CCC(N)=O)C(=O)N[C@@H](CCCNC(=N)N)C(=O)N[C@@H](Cc1ccc(O)cc1)C(N)=O)[C@@H](C)O)C(C)C)[C@@H](C)O) [Compound 132]
4.68 | Isovaleryl-APAK([Ahx-γGlu-C18 diacid])PEEDAEPEELQRYYVSLRHYYNWLTRQRY-NH2 (SMILES CC(C)CC(=O)N[C@@H](C)C(=O)N1CCC[C@H]1C(=O)N[C@@H](C)C(=O)N[C@@H](CCCCNC(=O)CCCCCNC(=O)CC[C@H](NC(=O)CCCCCCCCCCCCCCCCC(=O)O)C(=O)O)C(=O)N1CCC[C@H]1C(=O)N[C@@H](CCC(=O)O)C(=O)N[C@@H](CCC(=O)O)C(=O)N[C@@H](CC(=O)O)C(=O)N[C@@H](C)C(=O)N[C@@H](CCC(=O)O)C(=O)N1CCC[C@H]1C(=O)N[C@@H](CCC(=O)O)C(=O)N[C@@H](CCC(=O)O)C(=O)N[C@@H](CC(C)C)C(=O)N[C@@H](CCC(N)=O)C(=O)N[C@@H](CCCNC(=N)N)C(=O)N[C@@H](Cc1ccc(O)cc1)C(=O)N[C@@H](Cc1ccc(O)cc1)C(=O)N[C@H](C(=O)N[C@@H](CO)C(=O)N[C@@H](CC(C)C)C(=O)N[C@@H](CCCNC(=N)N)C(=O)N[C@@H](Cc1c[nH]cn1)C(=O)N[C@@H](Cc1ccc(O)cc1)C(=O)N[C@@H](Cc1ccc(O)cc1)C(=O)N[C@@H](CC(N)=O)C(=O)N[C@@H](Cc1c[nH]c2ccccc12)C(=O)N[C@@H](CC(C)C)C(=O)N[C@H](C(=O)N[C@@H](CCCNC(=N)N)C(=O)N[C@@H](CCC(N)=O)C(=O)N[C@@H](CCCNC(=N)N)C(=O)N[C@@H](Cc1ccc(O)cc1)C(N)=O)[C@@H](C)O)C(C)C) [Compound 133]
1.54 | Isovaleryl-APEK([Ahx-γGlu-C18 diacid])PEADAEPEEIQRYYVALRHYYNWLTRQRY-NH2 (SMILES CC[C@H](C)[C@H](NC(=O)[C@H](CCC(=O)O)NC(=O)[C@H](CCC(=O)O)NC(=O)[C@@H]1CCCN1C(=O)[C@H](CCC(=O)O)NC(=O)[C@H](C)NC(=O)[C@H](CC(=O)O)NC(=O)[C@H](C)NC(=O)[C@H](CCC(=O)O)NC(=O)[C@@H]1CCCN1C(=O)[C@H](CCCCNC(=O)CCCCCNC(=O)CC[C@H](NC(=O)CCCCCCCCCCCCCCCCC(=O)O)C(=O)O)NC(=O)[C@H](CCC(=O)O)NC(=O)[C@@H]1CCCN1C(=O)[C@H](C)NC(=O)CC(C)C)C(=O)N[C@@H](CCC(N)=O)C(=O)N[C@@H](CCCNC(=N)N)C(=O)N[C@@H](Cc1ccc(O)cc1)C(=O)N[C@@H](Cc1ccc(O)cc1)C(=O)N[C@H](C(=O)N[C@@H](C)C(=O)N[C@@H](CC(C)C)C(=O)N[C@@H](CCCNC(=N)N)C(=O)N[C@@H](Cc1c[nH]cn1)C(=O)N[C@@H](Cc1ccc(O)cc1)C(=O)N[C@@H](Cc1ccc(O)cc1)C(=O)N[C@@H](CC(N)=O)C(=O)N[C@@H](Cc1c[nH]c2ccccc12)C(=O)N[C@@H](CC(C)C)C(=O)N[C@H](C(=O)N[C@@H](CCCNC(=N)N)C(=O)N[C@@H](CCC(N)=O)C(=O)N[C@@H](CCCNC(=N)N)C(=O)N[C@@H](Cc1ccc(O)cc1)C(N)=O)[C@@H](C)O)C(C)C) [Compound 131]
